Values belong to the molecule of their own block, whether it stands above or below them.
What was measured:
[1] = molecular target: human EpCAM expressed on human carcinoma cells (PC3, MCF7) (human) (UniProt P16422); test: NIR flow cytometry, IRDye 800CW-labeled isotype control mAb on PC3 cells
[2] = molecular target: human EpCAM expressed on human carcinoma cells (PC3, MCF7) (human) (UniProt P16422); test: flow cytometry on MCF7 cells, mAb concentration 32 ng/ml, fluorescently labeled secondary antibody, 10,000 cells
[3] = molecular target: human EpCAM expressed on human carcinoma cells (PC3, MCF7) (human) (UniProt P16422); test: flow cytometry on MCF7 cells, mAb concentration 6.4 ng/ml, fluorescently labeled secondary antibody, 10,000 cells
[4] = molecular target: human EpCAM expressed on human carcinoma cells (PC3, MCF7) (human) (UniProt P16422); test: flow cytometry on MCF7 cells, mAb concentration 160 ng/ml, fluorescently labeled secondary antibody, 10,000 cells
[5] = molecular target: recombinant human (rhu) EpCAM/Fc (960-EP, R&D Systems) (human) (UniProt P16422); test: flow cytometry of E. coli displaying scFv (APEx), EpCAM-Fc then fluorescent secondary antibody
[6] = molecular target: human EpCAM expressed on human carcinoma cells (PC3, MCF7) (human) (UniProt P16422); test: flow cytometry on PC3 cells, scFv then fluorophore-conjugated secondary antibody
[7] = molecular target: recombinant human (rhu) EpCAM/Fc (960-EP, R&D Systems) (human) (UniProt P16422); test: Biacore kinetic analysis of scFv
[8] = molecular target: T1, human EpCAM expressed on human carcinoma cells (PC3, MCF7) (human, UniProt P16422 24-314); test: flow cytometry on PC3 cells, 5 µg/ml mAb, PE-labeled anti-mouse IgG
T1 construct: whole, on cells; also called native EpCAM; surface expressed EpCAM
T1 sequence (looked up): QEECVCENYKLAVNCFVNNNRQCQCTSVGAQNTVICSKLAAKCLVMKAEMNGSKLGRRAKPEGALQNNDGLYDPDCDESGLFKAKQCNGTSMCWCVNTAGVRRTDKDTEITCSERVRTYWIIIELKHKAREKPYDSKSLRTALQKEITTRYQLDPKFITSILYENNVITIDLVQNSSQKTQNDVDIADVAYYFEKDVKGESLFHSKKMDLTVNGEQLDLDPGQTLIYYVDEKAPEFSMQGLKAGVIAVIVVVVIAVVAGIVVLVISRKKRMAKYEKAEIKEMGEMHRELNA
Procedure: PC3 cells (human prostate adenocarcinoma line, CRL1435™, ATCC, Manassas, Va.), grown to 80%-100% confluency in DMEM with 10% FBS, were treated with Trypsin-EDTA and resuspended in PBS containing 2% bovine serum albumin (BSA). One million cells per well were labeled with 5 μg/ml of mAb in a 200-μl volume and incubated on ice for 20 min. After washing with PBS-BSA, phycoerythrin (PE)-conjugated donkey F(ab′)2 anti-mouse IgG (Jackson ImmunoResearch, West Grove, Pa.) at 5 μg per sample was added for an additional 20-min incubation. Cells were washed again with PBS-BSA and fixed in 2% paraformaldehyde prior to analyzing (10,000 events) on a BD FACSCalibur Flow Cytometer (BD Biosciences, San Jose, Calif.). Analyses of mean fluorescence intensities (MFI) were performed using WinMDI2.9 software.

[9] = molecular target: T2, murine EpCAM on mouse 4T1 mammary carcinoma cells (mouse, UniProt Q99JW5 24-315); test: flow cytometry on mouse 4T1 cells, PE-labeled anti-mouse IgG
T2 construct: whole, on cells; also called mouse EpCAM
T2 sequence (looked up): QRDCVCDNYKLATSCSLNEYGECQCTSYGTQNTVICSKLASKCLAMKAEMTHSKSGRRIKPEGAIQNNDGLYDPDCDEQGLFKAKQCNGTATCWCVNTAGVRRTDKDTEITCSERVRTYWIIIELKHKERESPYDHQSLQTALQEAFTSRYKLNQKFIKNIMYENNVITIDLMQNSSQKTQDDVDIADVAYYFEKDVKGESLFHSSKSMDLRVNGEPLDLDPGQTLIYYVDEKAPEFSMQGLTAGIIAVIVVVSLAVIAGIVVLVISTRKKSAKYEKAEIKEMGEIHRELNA
Procedure: To determine whether mAbs specific for human EpCAM cross-react with murine EpCAM, the human cell line MCF7 (as described above) and 4T1 cells (mouse mammary carcinoma, CRL2539™, ATCC) were used. Hybridoma cells were grown and mAbs purified as above-described. Rat anti-mouse EpCAM, mAb G8.8 (Developmental Studies Hybridoma Bank, University of Iowa, Iowa City, Iowa) was utilized as a positive control for detection of EpCAM on the surface of 4T1 cells. Following incubation (20 min, on ice) with mAb, cells were washed with PBS-BSA and either DyLIGHT-488 conjugated donkey anti-rat IgG (Jackson ImmunoResearch) or PE-conjugated donkey F(ab′) 2 anti-mouse IgG (Jackson ImmunoResearch) was added at 5 μg per sample and incubated for an additional 20 min for detecting cells bound by rat anti-mouse or mouse anti-human EpCAM mAb, respectively. Cells were washed again with PBS-BSA and fixed in 2% paraformaldehyde prior to analyzing (10,000 events) on a BD FACSCalibur Flow Cytometer (BD Biosciences) using WinMDI2.9 software.

[10] = molecular target: T3, recombinant human (rhu) EpCAM/Fc (960-EP, R&D Systems) (human, UniProt P16422 24-265); test: SPR, ratio of Fab KD values, reference mAb 9601 Fab
T3 construct: Bought fusion protein; not shown: Fc part
T3 sequence (looked up): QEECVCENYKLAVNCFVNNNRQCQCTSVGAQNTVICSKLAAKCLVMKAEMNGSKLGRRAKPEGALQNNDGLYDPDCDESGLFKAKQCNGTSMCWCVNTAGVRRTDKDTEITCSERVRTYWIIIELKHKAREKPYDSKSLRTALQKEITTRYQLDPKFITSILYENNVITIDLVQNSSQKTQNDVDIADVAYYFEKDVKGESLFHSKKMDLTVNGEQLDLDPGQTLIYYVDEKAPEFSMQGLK
Procedure: (§1) In order to discriminate between monovalent and multivalent interactions on quantitative SPR measurements of KD, the binding affinities of the Fab fragments of mAbs were measured using SPR and a Biacore T100 instrument (GE Healthcare). Two flow cells of a CM5 chip were coated with goat anti-human IgG (Fc-specific) (Jackson ImmunoResearch) to approximately 8000 resonance units (RU) with an NHS/EDC Amine Coupling Kit BR-1000-50 (GE Healthcare). All measurements were made at 25° C. using HBS-EP+(10 mM HEPES, 150 mM NaCl, 3 mM EDTA, 0.05% v/v Tween 20, pH 7.4) as running buffer. EpCAM/Fc ligand (R&D Systems) was diluted in HBS-EP+ to 0.5 μg/ml and applied to the coated chip surface. Fab fragments were then tested at five different molar concentrations starting at 50 nM after performing a two-fold dilution series. Flow cells were regenerated with 100 mM phosphoric acid. All samples were applied in duplicate.

[11] = molecular target: T3, recombinant human (rhu) EpCAM/Fc …; test: SPR (Biacore T100), EpCAM/Fc captured on anti-human IgG Fc chip, Fab as analyte, 25 C
Procedure: as §1

[12] = molecular target: T3, recombinant human (rhu) EpCAM/Fc …; test: SPR (Biacore T100), EpCAM/Fc captured, Fab as analyte; Fab fragment, not IgG
Procedure: as §1

[13] = molecular target: T3, recombinant human (rhu) EpCAM/Fc …; test: Biacore kinetic analysis of scFv

Biological Activity, % (percentage of PC3 cells stained) [1]: 0.7% | MFI [1]: 149 MFI units
Molecule: commercial IgG2b isotype control mAb (BD Pharmingen) (antibody)

Biological Activity, % (percentage of PC3 cells stained) [1]: 3.2% | MFI [1]: 125 MFI units
Molecule: in-house IgG1 isotype control mAb 69 (antibody)

MFI [5]: 13 MFI
Molecule: control scFv with no affinity to EpCAM (displayed on E. coli)

Kd [13]: 0.21 nM
B6: anti-EpCAM scFv 153 (scFv, V domains shown)
VH: QVQLQQSGAELVKPGTSVKLSCKASGYNFTSYWINWVKLRPGQGLEWIGDIYPGSGNSHYNEKFKSKATLTVDTSSSTAYMQLSSLASGDSALYYCARNYYGSSPFPMDYWGQGTSVTVSS
VL: DIVMTQSPSSLIVTAGEKVTMSCKSSQSLLNSGNQKNYLTWYQQKPGQPPKLLIYWASTRESGVPDRFTGSGSGTDFTLTLNSAQAEDLAVYYCQNDYTYPLTFGAGTKLEIK

The remaining lines, values behind:

Molecule: Veridex anti-EpCAM mAb VU-1D9 (antibody)
MFI [2]: 106 | MFI [3]: 38 | MFI [4]: 321

B1: anti-EpCAM scFv 7 (scFv, V domains shown, not shown: small tags and cut ends)
VH: QVQLQQSGPELEKPGGSVKISCKASGYSFTGYNMNWVKQSNGKSLEWIGNIDPYNGGSGFDQKFKGKATLTVDTSSSTAYMHLKSLTSEDSAVYYCAREYGSNFDYWGQGTTLTVSS
VL: DIQMTQSTSSLSASLGDRVTISCRASQDIGTYLNWYQQQADGTFKLLIYYTSRLHSGIPSRFSGSGSGTDFSLTISNLGQEDIATYFCQQGNTLPWTFGGGTKLEIK
modifications: linker not given
MFI [6]: 380 MFI | Kd [7]: 4.14 nM | MFI [5]: 170 MFI

B2: anti-EpCAM monoclonal antibody 7 (antibody, V domains shown)
VH: QVQLQQSGPELEKPGGSVKISCKASGYSFTGYNMNWVKQSNGKSLEWIGNIDPYNGGSGFDQKFKGKATLTVDTSSSTAYMHLKSLTSEDSAVYYCAREYGSNFDYWGQGTTLTVSS
VL: DIQMTQSTSSLSASLGDRVTISCRASQDIGTYLNWYQQQADGTFKLLIYYTSRLHSGIPSRFSGSGSGTDFSLTISNLGQEDIATYFCQQGNTLPWTFGGGTKLEIK
notes: In-house mouse IgG1 from hybridoma; IRDye 800CW (and DOTA) labeled in the NIR flow cytometry; also called mAb 7
MFI fold increase relative to PE-conjugated secondary antibody alone [8]: 3.9 fold | binding result [9]: no binding

B3: Fab fragment of mAb 7 (Fab, V domains shown)
VH: QVQLQQSGPELEKPGGSVKISCKASGYSFTGYNMNWVKQSNGKSLEWIGNIDPYNGGSGFDQKFKGKATLTVDTSSSTAYMHLKSLTSEDSAVYYCAREYGSNFDYWGQGTTLTVSS
VL: DIQMTQSTSSLSASLGDRVTISCRASQDIGTYLNWYQQQADGTFKLLIYYTSRLHSGIPSRFSGSGSGTDFSLTISNLGQEDIATYFCQQGNTLPWTFGGGTKLEIK
notes: Fab made by ficin digestion of the mouse IgG1 mAb 7; also called 7 Fab; mAb 7 Fab fragment
fold increase in affinity above mAb 9601 [10]: 7 fold | Kd [11]: 2.3 nM | koff [11]: 0.00099 s⁻¹ | kon [11]: 430000 M⁻¹ s⁻¹

B4: Fab fragment of mAb 153 (Fab, V domains shown)
VH: QVQLQQSGAELVKPGTSVKLSCKASGYNFTSYWINWVKLRPGQGLEWIGDIYPGSGNSHYNEKFKSKATLTVDTSSSTAYMQLSSLASGDSALYYCARNYYGSSPFPMDYWGQGTSVTVSS
VL: DIVMTQSPSSLIVTAGEKVTMSCKSSQSLLNSGNQKNYLTWYQQKPGQPPKLLIYWASTRESGVPDRFTGSGSGTDFTLTLNSAQAEDLAVYYCQNDYTYPLTFGAGTKLEIK
fold increase in affinity above mAb 9601 [10]: 28 fold | Kd [11]: 0.53 nM | koff [11]: 0.00012 s⁻¹ | kon [11]: 220000 M⁻¹ s⁻¹ | Kd [12]: 0.54 nM

B5: anti-EpCAM monoclonal antibody 153 (antibody, V domains shown)
VH: QVQLQQSGAELVKPGTSVKLSCKASGYNFTSYWINWVKLRPGQGLEWIGDIYPGSGNSHYNEKFKSKATLTVDTSSSTAYMQLSSLASGDSALYYCARNYYGSSPFPMDYWGQGTSVTVSS
VL: DIVMTQSPSSLIVTAGEKVTMSCKSSQSLLNSGNQKNYLTWYQQKPGQPPKLLIYWASTRESGVPDRFTGSGSGTDFTLTLNSAQAEDLAVYYCQNDYTYPLTFGAGTKLEIK
notes: In-house mouse IgG1 from hybridoma; In the NIR flow cytometry it carried IRDye 800CW (and DOTA)
MFI fold increase relative to PE-conjugated secondary antibody alone [8]: 4.8 fold | binding result [9]: no binding
